# T1: mouse GUCY2c (mouse, UniProt Q3UWA6 20-1072)
# T1 construct: whole, on cells; 300.19 cells over-expressing mouse GUCY2c, formalin-fixed paraffin-embedded cell pellets
# T1 sequence (looked up): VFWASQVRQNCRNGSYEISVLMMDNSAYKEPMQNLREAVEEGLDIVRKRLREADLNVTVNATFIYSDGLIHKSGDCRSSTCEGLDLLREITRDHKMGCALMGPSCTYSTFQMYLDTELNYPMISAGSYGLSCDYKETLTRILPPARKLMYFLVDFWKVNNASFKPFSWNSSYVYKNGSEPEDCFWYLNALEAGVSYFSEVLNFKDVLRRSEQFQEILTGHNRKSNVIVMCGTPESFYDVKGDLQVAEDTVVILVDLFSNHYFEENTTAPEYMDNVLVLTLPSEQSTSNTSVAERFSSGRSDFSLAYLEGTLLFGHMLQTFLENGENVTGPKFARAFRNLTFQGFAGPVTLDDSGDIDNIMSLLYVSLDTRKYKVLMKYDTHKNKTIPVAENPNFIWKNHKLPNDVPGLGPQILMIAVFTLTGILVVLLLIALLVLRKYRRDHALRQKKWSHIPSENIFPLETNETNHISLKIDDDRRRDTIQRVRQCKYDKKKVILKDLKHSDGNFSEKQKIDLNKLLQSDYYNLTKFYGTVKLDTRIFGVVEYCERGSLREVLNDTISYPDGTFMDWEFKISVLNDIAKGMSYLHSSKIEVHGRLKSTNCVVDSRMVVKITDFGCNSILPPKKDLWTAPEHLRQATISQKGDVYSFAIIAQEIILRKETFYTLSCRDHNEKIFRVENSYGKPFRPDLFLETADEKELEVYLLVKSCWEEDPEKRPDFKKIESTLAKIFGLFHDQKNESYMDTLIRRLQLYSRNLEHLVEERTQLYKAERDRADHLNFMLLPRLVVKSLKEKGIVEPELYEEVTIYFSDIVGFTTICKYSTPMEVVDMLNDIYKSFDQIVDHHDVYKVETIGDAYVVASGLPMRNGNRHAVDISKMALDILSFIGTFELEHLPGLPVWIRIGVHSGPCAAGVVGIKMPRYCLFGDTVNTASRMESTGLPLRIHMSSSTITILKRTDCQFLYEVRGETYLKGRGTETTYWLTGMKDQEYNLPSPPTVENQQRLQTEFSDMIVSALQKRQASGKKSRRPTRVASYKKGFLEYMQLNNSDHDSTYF
# B1: Anti-GUCY2c antibody Ab288 (antibody, mouse IgG1, kappa, V domains shown)
# VH: DVQLQESGPGLVKPSQSLSLTCTVTGYSITSDYAWNWIRQFPGNNLEWMGYISYSGSTRYNPSLKSRISITRDTSKNQFFLQLNSVTSEDTATYYCAREDGYVAMDYWGQGTSVTVSS
# VL: DIVLTQSPASLAVSLGQRATISCRASESVEYFGTSFMQWYQQRPGQPPKLLIYAASNVESGVPVRFSGSGSGTDFSLNIHPVEEDDIAMYFCQQSRKVPWTFGGGTNLEIKR
# Target: T1, mouse GUCY2c
# Assay: IHC on FFPE pellets of 300.19 cells over-expressing mouse GUCY2c
# Protocol: Empty holes were filled with paraffin and the array was allowed to warm at 40 ° C. in an incubator overnight to anneal the donor cores with the recipient block. Five micron sections of the cell microarray were cut, transferred to a water bath and placed on Superfrost Excell microscope slides (Fisher). Slides were allowed to dry overnight. After deparaffinization and rehydration of tissue sections, heat induced epitope retrieval was performed in the Retriever 2100 pressure cooker (Electron Microscopy Sciences) in Borg Decloaker buffer pH 9.5 (Biocare Medical) or pH 6.0 Citrate buffer (Thermo Scientific) followed by cooling to room temperature (RT). Endogenous peroxidase activity was inactivated with Peroxidazed 1 (Biocare Medical) for 10 m. Non-specific protein interactions were blocked for 10 m with Background Punisher (Biocare Medical). Each hybridoma was incubated without dilution for 1 h under both heat induced epitope retrieval conditions. Sections were rinsed in TBS and hybridoma binding was detected with Envision+ Mouse HRP (DAKO) for 30 m. Slides were rinsed in TBS and immunoreactivity was developed with Betazoid DAB Chromogen Kit (Biocare Medical) for 5 m, followed by rinses in distilled water. […] Slides were evaluated by a pathologist to assess immunoreactivity. […]
binder,measurement,value
B1,binding result,no binding (tested: 2 µg/ml and 10 µg/ml)

# Reference: patent publication US20230146072A1 (Pfizer, published 2023)
